{"source": "paper PMC10922795", "assay_in_all_cases": "SPR", "key": {"[1]": {"biological_target": "Igh^g2A10 mutant Fab J2/L114F (mouse)"}, "[2]": {"biological_target": "Igh^g2A10 mutant Fab J1/L114F with LC_Q106R (mouse)"}, "[3]": {"biological_target": "Igh^g2A10 mutant Fab J2/L114F with LC_Q106K (mouse)"}}}
{"substance": "recombinant PfCSP (from UniProt Q7K740 19-374) (natural protein)", "values": [{"measurement": "fold increase in affinity over the J2 UCA", "setting": "[1]", "result": 1.49, "unit": "fold"}, {"measurement": "fold increase in affinity over J1/L114F", "setting": "[2]", "result": 18.2, "unit": "fold"}, {"measurement": "fold increase in affinity over J2/L114F", "setting": "[3]", "result": 65, "unit": "fold"}]}
